Measurements taken from patent US20240207418A1, “LINKERS, DRUG LINKERS AND CONJUGATES THEREOF AND METHODS OF USING THE SAME” (ProfoundBio US Co., priority 2021, published 2024).

Legend:
[1] = system: cynomolgus FOLR1 protein; experiment: ELISA cross binding to cynomolgus FOLR1 protein
Description: (§1) The ability of the antibodies to bind to human FOLR1 protein or to cross binding to cynomolgus FOLR1 protein was tested by standard ELISA. Briefly, the human FOLR1 (ACRO-FO1-H52H1) or cynomolgus FOLR1 protein (ACRO, F01-C52H8) with a His tag was diluted to 5 μg/ml with a carbonic acid coating solution at pH 9.6 and 100 μL antigen was coated in each well of 96-well microtiter plate at 4° C. overnight. The liquid in the wells was discarded and the wells were washed three times with PBST. The wells were then blocked with 4% skim milk powder-PBS (Sigma, D5652-1 L), using 300 μL/well and the plates incubated in 37° C. for 1 hour. The liquid in the wells was discarded, and the well were washed three times with PBS. Samples were added using 100 μL/well; PBS was added in the control group. The plates were incubated at 37° C. for 1 hour. The liquid in the wells was discarded and the wells were washed three times with PBST. HRP-goat anti-human IgG (Sigma, 118885-2ML) was added (with 1:5000 dilution, 100 μL/well) and the plates were incubated in 37° C. for 1 hour. Then the liquid in the wells was discarded, and the wells were washed five times with PBST. A TMB solution was added using 100 μL/well. 2M H2SO4 was added to each well using 50 μL to terminate the reaction after […]. The A450 values were read using a microplate reader.

[2] = biological target: T1, human FOLR1 protein (Homo sapiens, UniProt P15328); experiment: ELISA binding to human FOLR1 protein
T1 construct: His tag; purchased ACRO FO1-H52H1
Description: as §1

T1 sequence (P15328 25-234): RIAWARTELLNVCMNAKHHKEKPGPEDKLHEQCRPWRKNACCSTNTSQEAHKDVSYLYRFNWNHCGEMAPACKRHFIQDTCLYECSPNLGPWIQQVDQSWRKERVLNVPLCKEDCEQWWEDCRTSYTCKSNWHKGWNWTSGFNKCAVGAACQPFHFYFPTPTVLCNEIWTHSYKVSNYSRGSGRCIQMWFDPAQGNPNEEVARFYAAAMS

B1: F40: anti-FOLR1 antibody clone: "Clone F40 has a different HCDRs and LCDRs, and with different HFR and LFR" (antibody, V domains shown)
VH: EVQLLESGGGVVQPGRSLRLSCAASGFTFSSYAMHWVRQAPGKGLEWVAVISYDGSNKYYADSVKGRFIISRDNSKNTVYLQMNSLRAEDTAVYYCARPTYVFTYTGSSFDYWGQGTQVTVSS
VL: DIQVTQSPSSLSASLGDTVSITCRASRGLTDSVAWYQQKPGQAPKLLIYAASTLQSGVPSRFGGSGSGSYFTLTITSLQPEDVATYYCQNYKSAPWTFGQGTKVEIK
- OD450, Target: Cynomolgus/Rhesus macaque FOLR1, Protein, His Tag, Diluted 1x ([1]; supernatant diluted 1x): 1.354 OD450
- OD450, Target: Cynomolgus/Rhesus macaque FOLR1, Protein, His Tag, Diluted 5x ([1]; supernatant diluted 5x): 1.111 OD450
- OD450, Target: Cynomolgus/Rhesus macaque FOLR1, Protein, His Tag, Diluted 25x ([1]; supernatant diluted 25x): 0.924 OD450
- OD450, Target: Human FOLR1 Protein His Tag, Diluted 1x ([2]; supernatant diluted 1x): 0.811 OD450
- OD450, Target: Human FOLR1 Protein His Tag, Diluted 5x ([2]; supernatant diluted 5x): 0.382 OD450
- OD450, Target: Human FOLR1 Protein His Tag, Diluted 25x ([2]; supernatant diluted 25x): 0.163 OD450
- Target binding, coating with Human FOLR1 Protein ([2]; transfection supernatant, ELISA): 2.3860 OD450
